Paper PMC11907993, “Rare but specific: 5-bp composite motifs define SMAD binding in BMP signaling”

Tests used:
[1] = target: T1, SMAD3 MH1 (human (Fig. 1/3 legends), UniProt P84022 10-136); test: EMSA; EMSA: 7.5 nM Cy5-dsDNA, 200 mM Tris pH 7.2, 100 mM NaCl, 2 mM TCEP, 15 min on ice; 6% PAGE in TG buffer, 4 °C; Hill fit, n = 2; conditions: protein: recombinant; tags: N-terminal His tag cleaved (TEV or 3C); chain copies: 2; label: 5'-Cy5
[2] = target: T1, SMAD3 MH1; test: EMSA; similar to sense SBE; EMSA: 7.5 nM Cy5-dsDNA, 200 mM Tris pH 7.2, 100 mM NaCl, 2 mM TCEP, 15 min on ice; 6% PAGE in TG buffer, 4 °C; Hill fit, n = 2; conditions: protein: recombinant; tags: N-terminal His tag cleaved (TEV or 3C); chain copies: 2; label: 5'-Cy5
[3] = target: SMAD4 MH1 (human (Fig. 1 legend), UniProt Q13485 18-142); test: EMSA; EMSA: 7.5 nM Cy5-dsDNA, 200 mM Tris pH 7.2, 100 mM NaCl, 2 mM TCEP, 15 min on ice; 6% PAGE in TG buffer, 4 °C; Hill fit, n = 2; conditions: protein: recombinant; tags: N-terminal His tag cleaved (TEV or 3C); label: 5'-Cy5
[4] = target: T1, SMAD3 MH1; test: EMSA; Hill h = 1.80 ± 0.23; double binding; EMSA: 7.5 nM Cy5-dsDNA, 200 mM Tris pH 7.2, 100 mM NaCl, 2 mM TCEP, 15 min on ice; 6% PAGE in TG buffer, 4 °C; Hill fit, n = 2; conditions: protein: recombinant; tags: N-terminal His tag cleaved (TEV or 3C); chain copies: 2; label: 5'-Cy5

Sequence of SMAD4 MH1 (Q13485 18-142): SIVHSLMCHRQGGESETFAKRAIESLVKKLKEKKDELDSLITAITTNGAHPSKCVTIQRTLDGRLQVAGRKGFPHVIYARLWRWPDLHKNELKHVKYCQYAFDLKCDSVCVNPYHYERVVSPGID
T1 sequence (P84022 10-136): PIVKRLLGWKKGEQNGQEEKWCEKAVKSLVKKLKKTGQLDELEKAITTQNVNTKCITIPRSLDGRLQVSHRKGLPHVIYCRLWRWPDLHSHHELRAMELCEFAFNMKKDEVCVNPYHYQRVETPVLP

Binder	Kd [1]	Kd [3]	further results
pGC-SBE/SBE heterocomposite, sense SBE (dsDNA) DNA 1: ATATGGCGCCAACTTGTCTGATATA DNA 2: TATATCAGACAAGTTGGCGCCATAT			binding result [1]: binds
pGC-SBE/SBE heterocomposite, inverted SBE (dsDNA) DNA 1: ATATAGTCTGAACTTGGCGCCATAT DNA 2: ATATGGCGCCAAGTTCAGACTATAT			binding result [2]: binds
SBE+ (dsDNA) DNA 1: ATATGTCTGATAT DNA 2: ATATCAGACATAT	366 ± 29 nM	919 ± 70 nM	
pGC-SBE+ (dsDNA) DNA 1: ATATGGCGCCATAT DNA 2: ATATGGCGCCATAT		886 ± 274 nM	Kd [4]: 293 ± 32 nM
npGC-SBE+ (dsDNA) DNA 1: ATATGGCTCCATAT DNA 2: ATATGGAGCCATAT	660 ± 280 nM	1340 ± 744 nM	
